Reference: paper PMC10869273 (Nature Biotechnology, 2023)

Assays:
[1] = biological target: SARS-CoV-2 Omicron BA.1 receptor-binding domain (RBD) (SARS-CoV-2 Omicron BA.1, strain, biotin on the AviTag (expressed in the presence of BirA)); test: BLI; settings: both partners purified
[2] = biological target: SARS-CoV-2 Beta-variant Spike with six stabilizing proline substitutions (S-6P) (SARS-CoV-2 Beta variant (B.1.351), strain)

B1: best design of C143, IgG (antibody, V domains shown)
VH: EVQLVESGGGLVQPGGSLRLSCAASGFSVSTKYMTWVRQAPGKGLEWVSVLYSGGSDYYADSVKGRFTISRDNSKNALYLQMNSLRVEDTGVYYCARDSSEVRDHPGHPGRSVGAFDIWGQGTMVTVSS
VL: QSALTQPASVSGSPGQSITISCTGTSNDVGSYNLVSWYQQYPGKAPKLLIFEVTKRSSGISNRFSGSKSGNTASLTISGLQGEDEADYYCCSYAGASTFVFGGGTKLTVL
- fold improvement in apparent Kd over wild-type [1]: 3.8 fold

B2: REGN10987 VH R16G-V108D (antibody, V domains shown)
VH: QVQLVESGGGVVQPGGSLRLSCAASGFTFSNYAMYWVRQAPGKGLEWVAVISYDGSNKYYADSVKGRFTISRDNSKNTLYLQMNSLRTEDTAVYYCASGSDYGDYLLDYWGQGTLVTVSS
VL: QSALTQPASVSGSPGQSITISCTGTSSDVGGYNYVSWYQQHPGKAPKLMIYDVSKRPSGVSNRFSGSKSGNTASLTISGLQSEDEADYYCNSLTSISTWVFGGGTKLTVL
- binding result [2]: binds

B3: another design of REGN10987 (5.1-fold improvement for the Omicron BA.1 RBD), Fab (Fab, V domains shown)
VH: QVQLVESGGGVVQPGGSLRLSCAASGFTFSNYAMYWVRQAPGKGLEWVAVISYDGSNKYYADSVKGRFTISRDNSKNTLYLQMNSLRTEDTAVYYCASGSDYGDYLLVYWGQGTLVTVSS
VL: QSALTQPASVSGSPGQSITISCTGTSSDVGGYNYVSWYQQHPGKAPKLMIYDVSKRPSGVSNRFSGSKSGNTASLTISGLQSEDEADYYCCSLTSISTWVFGGGTKLTVL
- fold improvement in Fab Kd over wild-type [1]: 5.1 fold
